Measured values as given in article PMC11503491 (ACS Central Science, 2024).

What was measured:
[1] = target: SARS-CoV-2 RBD (RWT), wild-type Wuhan Hu-1 receptor-binding domain, residues 319-533 (SARS-CoV-2 Wuhan Hu-1); assay: BLI; conditions: both partners purified
[2] = target: wild-type SARS-CoV-2 Wuhan Hu-1 receptor-binding domain (residues 319-533) (SARS-CoV-2 Wuhan-Hu-1); assay: BLI; conditions: both partners purified

| Binder | binding result [2] | further results |
| --- | --- | --- |
| CR3022 (class 4 RBD-directed antibody) (antibody, V domains shown, IgG) VH: QMQLVQSGTEVKKPGESLKISCKGSGYGFITYWIGWVRQMPGKGLEWMGIIYPGDSETRYSPSFQGQVTISADKSINTAYLQWSSLKASDTAIYYCAGGSGISTPMDVWGQGTTVTVSS VL: not shown |  | koff [1]: 0.016 s⁻¹ |
| CR3022 (antibody, V domains shown, also called class 4 antibody) VH: QMQLVQSGTEVKKPGESLKISCKGSGYGFITYWIGWVRQMPGKGLEWMGIIYPGDSETRYSPSFQGQVTISADKSINTAYLQWSSLKASDTAIYYCAGGSGISTPMDVWGQGTTVTVSS VL: not shown | binds |  |
| 1-16 (antibody, V domains shown, also called S2X259-like class 4 antibody) VH: QVQLVQSGAEVKKPGASVKVSCKASGYTFTSYYMHWVRQAPGQGLEWMGIINSSGGSTSYAQKFQGRVTMTRDTSTSTVYMELSSLRSEDTAVYYCARPPRNYYDRSGYYQRAEYFQHWGQGTLVTVSS VL: DIQLTQSPSSLSASVGDRVTITCQASQDISNYLNWYQQRPGKAPKLLIYDASNLETGVPSRFSGSGSGTDFTFTISSLQPEDIATYYCQQYDNPPLTFGGGTKLEIK | binds |  |
| C002 (antibody, V domains shown) VH: EVQLVESGGGVVQPGRSLRLSCAASGFTFSIYGMHWVRQAPGKGLEWVAVISYDGSNKYYADSVKGRFTISRDNSKNTLYLQMNSLRAEDTAVYYCAKEGRPSDIVVVVAFDYWGQGTLVTVSS VL: not shown | binds |  |
| SA55 (antibody, V domains shown, also called S2X259-like class 4 antibody) VH: QVQLVQSGAEVKKPGSSVKVSCKASGGTFRSHVISWVRQAPGQGLEWMGGFIPLFGTTIYAQAFQGRVMISADESTSTAYMELSSLRSEDTAVYFCARLFPNGDPNSPEDGFDIWGQGTLVTVSS VL: DIQMTQSPSSLSASVGDRVTITCQASQDIGNYLNWYQQKPGKAPKLLIYDASHLETGVPSRFSGSGSGTDFTFTISSLQPEDIATYYCQRYDDLPSYTFGQGTKVEIK | binds |  |
| C022 (antibody, V domains shown, also called S2X259-like class 4 antibody) VH: QVQLQESGPGLVKPSETLSVTCTVSGGSISSSRYYWGWIRQPPGKGLEWIGSIYYSGSTYYNPSLKSRVTISVDTSKNQFSLKLSSVTAADTAVYYCARHAAAYYDRSGYYFIEYFQHWGQGTLVTVSS VL: DIQMTQSPSTLSASVGDSVTITCRASQSISSWLAWYQQKPGKAPKLLIYKASSLESGVPSRFSGSGSGTEFTLTISSLQPDDFATYYCQQYNNYRYTFGQGTKLEIK | binds |  |
| S2X259 IgG (antibody, V domains shown, also called class 4 mAb) VH: QVQLVQSGAEVKKPGSSVKVSCKASGGIFNTYTISWVRQAPGQGLEWMGRIILMSGMANYAQKIQGRVTITADKSTSTAYMELTSLRSDDTAVYYCARGFNGNYYGWGDDDAFDIWGQGTLVTVYS VL: QTVLTQPPSVSGAPGQRVTISCTGSNSNIGAGYDVHWYQQLPGTAPKLLICGNSNRPSGVPDRFSGSKSGTSASLAITGLQAEDEADYYCQSYDSSLSGPNWVFGGGTKLTVL |  | koff [2]: 0.0011 s⁻¹ |
| fragment antigen-binding region (Fab) of S2X259 (Fab, V domains shown, also called S2X259 Fab) VH: QVQLVQSGAEVKKPGSSVKVSCKASGGIFNTYTISWVRQAPGQGLEWMGRIILMSGMANYAQKIQGRVTITADKSTSTAYMELTSLRSDDTAVYYCARGFNGNYYGWGDDDAFDIWGQGTLVTVYS VL: QTVLTQPPSVSGAPGQRVTISCTGSNSNIGAGYDVHWYQQLPGTAPKLLICGNSNRPSGVPDRFSGSKSGTSASLAITGLQAEDEADYYCQSYDSSLSGPNWVFGGGTKLTVL |  | Kd [2]: 0.97 ± 0.5 nM |
| COVA2-15 (antibody, V domains shown, also called class 2 antibody) VH: QVQLLESGGGLVQPGGSLRLSCAASGFTFSSYAMSWVRQAPGKGLEWASAISGSGGSTYYADSVEGRFTISRDNSKNTLYLQMNSLRAEDTAVYYCAKDTGYCGDDCYIKLIRGGPDYWGQGTLVTVSS VL: DIVMTQSPLSLPVTLGQPASISCRSSQSLVYSDGNTFLNWFQQRPGQSPRRLIYQVSNRDSGVPDRFSGSGSGTDFTLKISRVEAEDVGVYYCMQGTHWPRTFGQGTKLEIK | binds |  |
| CB6 (class 1 RBD-directed antibody) (antibody, V domains shown) VH: EVQLVESGGGLVQPGGSLRLSCAASGFTVSSNYMSWVRQAPGKGLEWVSVIYSGGSTFYADSVKGRFTISRDNSMNTLFLQMNSLRAEDTAVYYCARVLPMYGDYLDYWGQGTLVTVSS VL: not shown |  | koff [1]: 0.013 s⁻¹ |
| CB6 (antibody, V domains shown) VH: EVQLVESGGGLVQPGGSLRLSCAASGFTVSSNYMSWVRQAPGKGLEWVSVIYSGGSTFYADSVKGRFTISRDNSMNTLFLQMNSLRAEDTAVYYCARVLPMYGDYLDYWGQGTLVTVSS VL: not shown | binds |  |
